In publication PMC6650354 one finds Kd and critical concentration (Cr) of fibril growth data, which are given here for 4 substances.

pKd: −log10 of the molar value. Where two headings read alike, the source gives them in different places.

Experiment [1] has as its target immunoglobulin light chain κI O18/O8 variable domain (Homo sapiens) (UniProt P01594). The conditions noted are these: cited from earlier work.
Experiment [2] concerns the target κI O18/O8 germline (control) light chain variable domain protein (human) (UniProt P01594). Description: HPLC sedimentation assay.
The target is the same in experiment [3]. Description: HPLC sedimentation assay. This is another data set of the same source.
The target in experiment [4] is AL-09 H87Y restorative mutant light chain variable domain protein (human) (UniProt P01594). Description: HPLC sedimentation assay.
The target is the same in experiment [5]. Description: HPLC sedimentation assay. The source holds these as a separate data set.
Experiment [6] has as its target AL-12 R65S restorative mutant light chain variable domain protein (human) (UniProt P01594). The experiment in a line: HPLC sedimentation assay.

Take “immunoglobulin light chain κI O18/O8 variable domain (from UniProt P01594)”: the negative logarithm of the Kd (pKd) (in general, the Kd on a negative log10 scale, so that one unit is a factor of ten) in experiment [1] was 3.66.

On to “κI O18/O8 germline (control) light chain variable domain protein (from UniProt P01594 23-117) (domain or fragment)”, for which the critical concentration (Cr) of fibril growth in experiment [2] was 3.2 µM; in experiment [3], 1.2 µM. For the substance “AL-09 H87Y restorative mutant light chain variable domain protein (from UniProt P01594 23-117) (domain or fragment)”, the critical concentration (Cr) of fibril growth in experiment [4] came to 2.8 µM; in experiment [5], 2.4 µM. “AL-12 R65S restorative mutant light chain variable domain protein (from UniProt P01594 23-111) (domain or fragment)” yielded a critical concentration (Cr) of fibril growth in experiment [6] of 3.4 µM.
